Measurements: the DeepSol protein solubility set

Experiment: soluble on expression in E. coli; label from the status in PepcDB or PDB records

| Sequence | soluble on expression in E. coli |
| --- | --- |
| GNDEIGELALAFNNLSKRVQEAQANTESEKRRLDSVITHMSDGIIATDRRGRIRIVNDMALKMLGMAKEDIIGYYMLSVLSLEDEFKLEEIQENNDSFLLDLNEEEGLIARVNFSTIVQETGFVTGYIAVLHD | not soluble |
| MSLSAHVEYFKPPAESELPDNAYGKLVREGYALFVDTKRLAPQFVGNGLNCSNCHLDQGRLANSAPLWGAYPMYPAYRKKNDKVNTFAERLQGCFQFSMNGGKPPAADSPQITALSVYAYWLASKAPLGVELPGRGYPDVAQPAKGYDLKQGAAVYQAQCAVCHGDNGQGQKAGADYVMPPLWGKDSYNWGAGMHRINTAASFIKHNMPLGKGGSLSDQQAWDVAAFVNSHERPQDPRLVEGSIEKTRVKFHANDGVNLYGQTVEGVLIGQGIREGHHHHHH | not soluble |
| MPKKRENRGRRKGDKGHVGYISCDQCGARVPEDKAVCVTKMYSPVDASLASELEKKGAIIARYPVTKCYCVNCAVFLGIIKIRAENERKQKARLRLEHHHHHH | not soluble |
| MKGTQMLALNKKCWDIVAPYFFQVDCLPKYGPYTASEDEIHLFDSIKGKKVLDIGCGSGHSLQYMAEHGAEELWGLDLSSTQIETAHETLQSWNPKLICGAMEEERDIPKGYFDIVYSIYALGWTSDLRKTLELIYSYVKPGGSFIFSWEHPVYSNLMYGTEEIAFSSSYHEETPITFETFKGEDVQATLYKRKMSTYINELNRVGFTIERIEEPEPSSSFDEKLAEPSTKYYSLHKARMVPTTFIIKARKLEHHHHHH | soluble |
| MGSDKIHHHHHHMASILAVDVGTTSIKAGIVSTENFEAESTQSTRAVVEYPKKHWAEKDPEKLWNSIVEVCKPLAEKANPDAIVFGAHMAGVVPVDGEGNALRNIITWLDERAAGLPEDVWKGLIKIQGYSLTKLIKFLRLTGGAPSRTGKDPISKIVWIRENEPDVFGKTFKMLDVRGYLVARATGNFVTSPDEAHLTWLADTRGGKARWSESILKDYALSASLFPEIKNCTEIAGYLRPEVRKEFGLEGDVPVMVGSGDVAAAAVGSGAVKDYECHIYVGTSDWVAAHIPQRKTDIFHFIGSLLSAIPEKYLLIAEQEVAAGALEWAMRLVGIQGEYELVKELVEKAPAGKLIFMPWFYGERAPIDDPYVRGGLVNVGLDSGREEVLRAMMEGVALNIKWVFGYVEKMTAPQQMVSIVGGGALFDIWCQIISNAVRRPLRRIKHPEETGLRGLATMAAVGLGEESFESAAAKFEVDRVFKPDDEEAKVYDRLFEYYKELYSKLKKVYRKLNSAEY | not soluble |
| MDATDDIRAGELASDWSGSPDAGVVFIGRIHTPWNRLKECPRHGRADGPVCRIEVFETWLPALAGIDDGTLLEVFYWLHRSRRDLLLQCPRNDGDARGTFSIRSPLRPNPIGTSIARVDRRDGANLFIRGLDCLDGTPLVDLKPDRAEFMPLAPPKPGDFQVGEPRR | soluble |
| MTQNTKLRPITPEFDPWEAYMDVDQYGDMQLTNVEFTTTTLCNMRCEHCAVGYTLQPKDPNALPIDLLLKRLEEIPRLRSISITGGEPMLSLKSVKEYVVPLLKYAHERGVRTQINSNLTLDIERYEWIIPYLDVLHISHNWGTVEDFAEIGFA | not soluble |
| MVHYKLTYFNARGLAEISRQLFHMAGVEFEDERINEEKFSQLKPTFPSGQVPILCIDGAQFSQSTAIARYLARKFGFVGQTAEEELQADEVVDTFKDFIESFRKFVIAVLSGESEEILKNIREEVIKPAVKTYTAYLKAILEKSSSGYLVGNELTWADLVIADNLTTLINAELLDIENDKLLKEFREKIIETPKLKEWLAKRPETRF | not soluble |
| MTIIAGTVVKGKQLGRKLGFPTANVDAKIHGLRNGVYGVLATVNHQFHLGVMNIGVKPTVGSNLEKTLEIFLFDFHRDIYGEKIECSILFKIREERRFDSLESLTKQIKKDISCVAKRFELIGIMAPNKKESLLSHQELNLPDLCFYKKCNNLYGVNRGVYNVIDNWFFEYGITQVAYRRIYILSFLSFLKEDNPKVSSKYIRFGAGGLADKLNRFISSYVEESEENILGLEHHHHHH | soluble |
| MEKADIEAIFARSRFISAMNLEILDIDHAGSRFSVRMPLQDTYERGAPGTKQFHGGALAALIDVVGDFAIGMLVGGGVPTMNLRIDYLRPAVGDYVDGVAVVRKAGKSAAVVDIDILCPAGKLVAIGRGTYVPITGLEHHHHHH | not soluble |
